The labels stand for the following.
B1: Azoarcus group I ribozyme (parent)
chain: GUGCCUUGCGCCGGGAAACCACGCAAGGGAUGGUGUCAAAUUCGGCGAAACCUAAGCGCCCGCCCGGGCGUAUGGCAACGCCGAGCCAAGCUUCGGCGCCUGCGCCGAUGAAGGUGUAGAGACUAGACGGCACCCACCUAAGGCAAACGCUAUGGUGAAGGCAUAGUCCAGGGAGUGGCGAAAGUCACACAAACCGG

The series covers variants of B1. In words: reverse-splicing fitness (ratio to wild type); higher = more active; in vitro selection; Mg2+ level not given. A digest of the protocol:
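An in vitro group I ribozyme library with randomized positions was T7-transcribed and gel-purified. In triplicate, 10 pmol RNA in EPPS pH 7.5 was reacted with 50 pmoles of a 30-nt RNA substrate for 1 h at 37 °C across several added MgCl2 levels (1–48 mM), then stopped with EDTA. Products were reverse transcribed from a substrate-complementary primer, PCR-amplified and sequenced (HiSeq 4000). Fitness is a variant's read proportion after selection over that before, normalised to wild type.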
As to C82A A111G A120G A145U C150A C169U U176C, the reverse-splicing fitness is 0.0157.
In the case of C82A A111G A120G A145U C150A C169U U176G, the reverse-splicing fitness was found to be 0.00457.
In the case of C82A A111G A120G A145U C150A C169U U176A, the reverse-splicing fitness is 0.0222.
The value for C82A A111G A120G A145C C150A C169G was 0.00922; that for C82A A111G A120G A145C C150A C169U was 0.00881; that for C82A A111G A120G A145C C150A C169A was 0.00942.
The value for C82A A111G A120G C150U U176C was 0.0156; that for C82A A111G A120G C150U U176A was 0.0108.
As to C82A A111G A120G C150U U176G, the reverse-splicing fitness is 0.00781.
In the case of C82A A111G A120C C150G C169U it was 0.00991.
In the case of C82A A111G A120C C150G C169G it was 0.00727; in that of C82A A111G A120C C150G C169A, 0.00992; in that of C82A A111G A120C C150G U176A, 0.0064.
As to C82A A111G A120C C150G U176C, the reverse-splicing fitness is 0.00892.
Regarding C82A A111G A120C C150G U176G, the reverse-splicing fitness is 0.00391.
Consider C82A A111G A120G A145G C150U C169G, for which the reverse-splicing fitness was 0.0113.
On to C82A A111G A120G A145G C150U C169U, for which the reverse-splicing fitness is 0.011.
Consider C82A A111G A120G A145G C150U C169A, for which the reverse-splicing fitness came to 0.0119.
The value for C82A A111G A120G A145C C150G U176C was 0.0087; that for C82A A111G A120G A145C C150G U176A was 0.0058; that for C82A A111G A120G A145C C150G U176G was 0.00287.
For C82A A111G A120G C150A C169G, the reverse-splicing fitness came to 0.00987.
For the variant C82A A111G A120G C150A C169A, the reverse-splicing fitness was determined as 0.0103.
For C82A A111G A120G C150A C169U, the reverse-splicing fitness was determined as 0.00823.
The value for C82A A111G A120C C150U C169A U176A was 0.0187; that for C82A A111G A120C C150U C169A U176C was 0.0154.
In the case of C82A A111G A120C C150U C169A U176G it was 0.00635; in that of C82A A111G A120G A145G C150A U176A, 0.0103; in that of C82A A111G A120G A145G C150A U176G, 0.00899.
In the case of C82A A111G A120G A145G C150A U176C it was 0.0203; in that of C82A A111G A120U A145C C150A C169G, 0.00279.
For the variant C82A A111G A120U A145C C150A C169A, the reverse-splicing fitness was determined as 0.00211.
On to C82A A111G A120U A145C C150A C169U, for which the reverse-splicing fitness stood at 0.00264.
Take C82A A111G A120U A145C C150G C169G U176A: the reverse-splicing fitness came to 0.00289.
Take C82A A111G A120G A145G C150U C169A U176A: the reverse-splicing fitness was found to be 0.016.
For the variant C82A A111G A120G A145G C150U C169A U176C, the reverse-splicing fitness was found to be 0.0174.
Take C82A A111G A120G A145G C150U C169A U176G: the reverse-splicing fitness was found to be 0.0063.
In the case of C82A A111G A120G C150U C169U it was 0.0102; in that of C82A A111G A120G C150U C169G, 0.0108; in that of C82A A111G A120G C150U C169A, 0.00952.
For the variant C82A A111G A120G C150A, the reverse-splicing fitness was found to be 0.0105.
For C82A A111G A120G C150U, the reverse-splicing fitness was determined as 0.0127.
C82A A111G A120G C150G: the reverse-splicing fitness was 0.00686.
In the case of C82A A111G A120C C169U it was 0.0139; in that of C82A A111G A120C C169A, 0.00875; in that of C82A A111G A120C C169G, 0.00888.
The value for C82A A111G A120G A145U C150G C169U was 0.00867.
In the case of C82A A111G A120G A145U C150G C169G it was 0.00677.
Take C82A A111G A120G A145U C150G C169A: the reverse-splicing fitness worked out at 0.00989.
For the variant C82A A111G A120C C150U C169G, the reverse-splicing fitness was determined as 0.00852.
The value for C82A A111G A120C C150U C169U was 0.0116; that for C82A A111G A120C C150U C169A was 0.00986; that for C82A A111G A120G A145U C150U C169A was 0.0103.
The value for C82A A111G A120G A145U C150U C169G was 0.0104; that for C82A A111G A120G A145U C150U C169U was 0.00852.
C82A A111G A120G A145C C150G C169A U176A: the reverse-splicing fitness came to 0.00923.
In the case of C82A A111G A120G A145C C150G C169A U176C it was 0.00743.
In the case of C82A A111G A120G A145C C150G C169A U176G, the reverse-splicing fitness is 0.00564.
In the case of C82A A111G A120G C169A U176C it was 0.0213; in that of C82A A111G A120G C169A U176G, 0.00477.
The value for C82A A111G A120G C169A U176A was 0.0178; that for C82A A111G A120G A145C C150U U176G was 0.00504.
Consider C82A A111G A120G A145C C150U U176C, for which the reverse-splicing fitness came to 0.0104.
In the case of C82A A111G A120G A145C C150U U176A it was 0.00898; in that of C82A A111G A120G C150A U176C, 0.0186; in that of C82A A111G A120G C150A U176A, 0.0129.
As to C82A A111G A120G C150A U176G, the reverse-splicing fitness stood at 0.00961.
In the case of C82A A111G A120G A145C C150U C169U U176C it was 0.0113; in that of C82A A111G A120G A145C C150U C169U U176A, 0.0203; in that of C82A A111G A120G A145C C150U C169U U176G, 0.00537.
In the case of C82A A111G A120G C150A C169G U176C it was 0.0245; in that of C82A A111G A120G C150A C169G U176G, 0.00613; in that of C82A A111G A120G C150A C169G U176A, 0.0211.
In the case of C82A A111G A120U A145C C150A C169U U176C it was 0.00198; in that of C82A A111G A120U A145C C150A C169U U176G, 0.00212.
For the variant C82A A111G A120U A145C C150A C169U U176A, the reverse-splicing fitness is 0.00351.
Turning to C82A A111G A120C C150G C169U U176C, the reverse-splicing fitness turned out to be 0.0107.
On to C82A A111G A120C C150G C169U U176A, for which the reverse-splicing fitness was found to be 0.00701.
Turning to C82A A111G A120C C150G C169U U176G, the reverse-splicing fitness stood at 0.00651.
On to C82A A111G A120G A145G C150A C169G U176G, for which the reverse-splicing fitness was determined as 0.00592.
The value for C82A A111G A120G A145G C150A C169G U176A was 0.0194; that for C82A A111G A120G A145G C150A C169G U176C was 0.0239; that for C82A A111G A120G A145U C150G U176A was 0.00605.

Source of the values: the RNAGym collection of RNA variant scans (doi:10.1093/molbev/msab373).
